Source: US20240294670A1 (University of Texas, published 2024)

Experiments:
Test in all cases: anti-His co-IP of rCHI3L1 from Kupffer cell lysate, MS; listed under 'proteins bound to CHI3L1'
Q3TVM2_MOUSE = molecular target: T1, Q3TVM2_MOUSE (mouse, UniProt Q3TVM2 20-519)
T1 construct: also called tr|Q3TVM2|Q3TVM2_MOUSE
T1 sequence: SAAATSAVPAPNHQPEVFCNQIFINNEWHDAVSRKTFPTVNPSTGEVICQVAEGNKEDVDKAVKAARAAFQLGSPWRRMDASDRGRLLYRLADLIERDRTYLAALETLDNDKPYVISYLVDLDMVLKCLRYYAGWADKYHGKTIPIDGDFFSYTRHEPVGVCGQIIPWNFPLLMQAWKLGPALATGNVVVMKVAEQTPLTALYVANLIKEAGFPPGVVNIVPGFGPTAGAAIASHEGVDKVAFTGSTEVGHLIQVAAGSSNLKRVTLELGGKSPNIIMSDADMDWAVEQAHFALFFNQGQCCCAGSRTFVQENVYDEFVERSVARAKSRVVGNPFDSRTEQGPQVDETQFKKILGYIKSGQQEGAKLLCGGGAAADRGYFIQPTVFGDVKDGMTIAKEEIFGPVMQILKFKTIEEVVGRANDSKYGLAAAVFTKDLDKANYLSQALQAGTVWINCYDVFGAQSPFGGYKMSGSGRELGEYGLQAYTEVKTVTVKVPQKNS
Description: (§1) CHI3L1 interacts with CD44 on KCs. To further understand how CHI3L1 mediates the function of KCs to recruit platelets, the inventors set out to identify its receptor on KCs. They isolated KCs from WT mice treated with APAP for 3 h and incubated the cells with His-tagged rCHI3L1. The cell lysate was subjected to immunoprecipitation using an anti-His antibody. The “pulled down” fraction was subjected to LC/MS analyses. A partial list of proteins identified, including CHI3L1 itself, is shown in (Extended Data Table 1). Because CD44 is a cell membrane protein, the inventors decided to investigate it is a receptor for CHI3L1. They performed/immunoprecipitation experiments using liver homogenates obtained from WT and CD44^{-/-} mice after APAP treatment. […] Moreover, the inventors incubated rhCHI3L1 with human CD44 and then immunoprecipitated with an anti-CD44 antibody. The data confirmed a direct binding between CHI3L1 and CD44 (FIG. 3C). Consistent with the notion that many cell types express CD44, they detected CD44 express on various hepatic non-parenchymal cells (NPCs) except B cells and DCs (summarized in Extended Data Table 2). However, when they incubated liver NPCs with His-tagged rCHI3L1, the inventors observed that the only CD44-expressing cells that could bind to CHI3L1 were KCs (FIG. 3D).

Q5FW97_MOUSE = molecular target: T2, Q5FW97_MOUSE (mouse, UniProt Q5FW97 2-434)
T2 construct: also called tr|Q5FW97|Q5FW97_MOUSE
Description: as §1

Q3TF14_MOUSE = molecular target: T3, Q3TF14_MOUSE (mouse, UniProt Q3TF14 2-432)
T3 construct: also called tr|Q3TF14|Q3TF14_MOUSE
T3 sequence: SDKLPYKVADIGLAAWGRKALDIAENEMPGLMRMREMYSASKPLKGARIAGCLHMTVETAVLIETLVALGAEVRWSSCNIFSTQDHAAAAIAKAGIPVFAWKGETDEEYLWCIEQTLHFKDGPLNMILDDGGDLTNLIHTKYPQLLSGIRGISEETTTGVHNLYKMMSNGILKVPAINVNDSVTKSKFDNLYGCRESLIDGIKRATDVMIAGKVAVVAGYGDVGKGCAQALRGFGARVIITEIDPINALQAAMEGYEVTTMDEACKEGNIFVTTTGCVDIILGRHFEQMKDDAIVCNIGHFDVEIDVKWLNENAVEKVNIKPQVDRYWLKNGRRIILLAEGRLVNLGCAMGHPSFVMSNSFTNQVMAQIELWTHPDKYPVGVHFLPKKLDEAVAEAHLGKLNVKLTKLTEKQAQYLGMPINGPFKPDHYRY
Description: as §1

Q3UEQ9_MOUSE = molecular target: T4, Q3UEQ9_MOUSE (mouse, UniProt Q3UEQ9 28-926)
T4 construct: also called tr|Q3UEQ9|Q3UEQ9_MOUSE
T4 sequence: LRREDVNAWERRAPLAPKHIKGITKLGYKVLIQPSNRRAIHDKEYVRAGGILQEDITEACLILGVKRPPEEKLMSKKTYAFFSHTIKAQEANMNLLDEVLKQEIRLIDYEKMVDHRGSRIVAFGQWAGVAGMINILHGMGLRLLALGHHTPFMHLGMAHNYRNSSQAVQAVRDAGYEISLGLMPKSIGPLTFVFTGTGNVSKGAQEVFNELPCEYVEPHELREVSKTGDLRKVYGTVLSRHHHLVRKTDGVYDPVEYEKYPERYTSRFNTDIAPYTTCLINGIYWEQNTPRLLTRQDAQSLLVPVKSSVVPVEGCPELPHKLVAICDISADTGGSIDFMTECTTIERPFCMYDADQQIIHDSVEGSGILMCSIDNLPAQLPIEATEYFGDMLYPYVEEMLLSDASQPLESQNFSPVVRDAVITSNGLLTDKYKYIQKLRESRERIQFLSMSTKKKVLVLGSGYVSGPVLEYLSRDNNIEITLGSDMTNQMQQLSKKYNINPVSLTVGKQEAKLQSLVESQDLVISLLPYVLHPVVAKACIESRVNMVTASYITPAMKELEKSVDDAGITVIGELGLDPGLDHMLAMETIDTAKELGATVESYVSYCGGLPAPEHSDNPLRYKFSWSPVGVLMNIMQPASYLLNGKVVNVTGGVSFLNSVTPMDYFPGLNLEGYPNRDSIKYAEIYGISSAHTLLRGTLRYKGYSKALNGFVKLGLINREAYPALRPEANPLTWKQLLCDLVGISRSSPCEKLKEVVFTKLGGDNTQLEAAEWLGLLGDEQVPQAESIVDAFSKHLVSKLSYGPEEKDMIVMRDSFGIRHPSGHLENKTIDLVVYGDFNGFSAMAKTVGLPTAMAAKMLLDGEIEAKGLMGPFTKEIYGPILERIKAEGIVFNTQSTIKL
Description: as §1

Measured: binding result

T2 sequence (Q5FW97 entry or part of it limits assumed): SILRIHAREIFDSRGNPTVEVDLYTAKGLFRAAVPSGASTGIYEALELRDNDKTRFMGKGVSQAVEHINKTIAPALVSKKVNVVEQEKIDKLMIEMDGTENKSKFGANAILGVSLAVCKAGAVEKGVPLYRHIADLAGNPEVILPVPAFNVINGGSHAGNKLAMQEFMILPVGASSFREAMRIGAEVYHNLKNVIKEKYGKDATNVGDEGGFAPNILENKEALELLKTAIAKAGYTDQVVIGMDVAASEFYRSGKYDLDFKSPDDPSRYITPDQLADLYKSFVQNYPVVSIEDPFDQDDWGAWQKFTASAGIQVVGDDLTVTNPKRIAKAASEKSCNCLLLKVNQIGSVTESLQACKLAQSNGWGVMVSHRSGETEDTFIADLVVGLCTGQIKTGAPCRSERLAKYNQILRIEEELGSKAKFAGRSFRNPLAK

B1: recombinant mouse CHI3L1 (ligand)
chain: not shown
notes: His-tagged; also called mCHI3L1; mChi3l1
binds: Q3TVM2_MOUSE | Q5FW97_MOUSE | Q3TF14_MOUSE | Q3UEQ9_MOUSE
